We go through four molecules from patent publication US20220220224A1 (Hoffmann-La Roche, published 2022).

For test [1], the target named is T1, recombinant biotinylated monomeric Fc fusion of cynomolgus Folate Receptor 1 (cy FolR1 ECD-AcTev-Fcknob-Avi … (cynomolgus, UniProt P0DOX5 223-449 = IgG part, biotin on the C-terminal Avi tag)).
T1 construct: also called cyFolR1-Fc; cyno FolR1
Put plainly: SPR Biacore, avidity (bivalent, apparent KD), antigen-Fc on SA chip. How it is done:
(§1) The avidity of the interaction between the anti-FolR1 IgGs or T cell bispecifics and the recombinant folate receptors was determined as described below (Table 38).
(§2) Recombinant biotinylated monomeric Fc fusions of human, cynomolgus and murine Folate Receptor 1 (FolR1-Fc) were directly coupled on a SA chip using the standard coupling instruction (Biacore, Freiburg/Germany). The immobilization level was about 160. The anti-FolR1 IgGs or T cell bispecifics were passed at a concentration range from 3.7 to 900 nM with a flow of 30 μL/minutes through the flow cells over 180 seconds. The dissociation was monitored for 600 seconds. Bulk refractive index differences were corrected for by subtracting the response obtained on reference flow cell immobilized with recombinant biotinylated murine IL2 receptor Fc fusion. The binding curves resulting from the bivalent binding of the IgG or T cell bispecifics were approximated to a 1:1 Langmuir binding (even though it is a 1:2 binding) and fitted with that model to get an apparent KD representing the avidity of the bivalent binding. The apparent avidity constants for the interactions were derived from the rate constants of the fitting using the Bia Evaluation software (GE Healthcare).

Test [2] has as its target T2, recombinant biotinylated monomeric Fc fusion of human Folate Receptor 1 (huFolR1 ECD-AcTev-Fcknob-Avi tag … (human, UniProt P0DOX5 223-449 = IgG part, biotin on the C-terminal Avi tag)).
T2 construct: also called huFolR1-Fc; human FolR1-Fc
The description is as above. How it is done: as §1, §2

The target of test [3] is T1, recombinant biotinylated monomeric Fc …. Kind of test: SPR Biacore, affinity (monovalent), antibody captured via anti-Fab. How it is done:
(§3) The affinity of the interaction between the anti-FolR1 IgGs or the T cell bispecifics and the recombinant folate receptors was determined as described below (Table 39).
(§4) For affinity measurement, direct coupling of around 10000 resonance units (RU) of the anti-human Fab specific antibody (Fab capture kit, GE Healthcare) was performed on a CM5 chip at pH 5.0 using the standard amine coupling kit (GE Healthcare). Anti-FolR1 IgGs or T cell bispecifics were captured at 20 nM with a flow rate of 10 μl/min for 40 sec, the reference flow cell was left without capture. Dilution series (12.35 to 3000 nM) of human and cyno Folate Receptor 1 Fc fusion were passed on all flow cells at 30 μl/min for 240 sec to record the association phase. The dissociation phase was monitored for 300 s and triggered by switching from the sample solution to HBS-EP. The chip surface was regenerated after every cycle using a double injection of 60 sec 10 mM Glycine-HCl pH 1.5. Bulk refractive index differences were corrected for by subtracting the response obtained on the reference flow cell 1. The affinity constants for the interactions were derived from the rate constants by fitting to a 1:1 Langmuir binding using the Bia Evaluation software (GE Healthcare).

Test [4] has as its target T2, recombinant biotinylated monomeric Fc …. Described as above. The method, then:
as §3, §4

The target of test [5] is T3, recombinant biotinylated monomeric Fc fusion of murine Folate Receptor 1 (mu FolR1 ECD-AcTev-Fcknob-Avitag … (murine, UniProt P0DOX5 223-449 = IgG part, biotin on the C-terminal Avi tag)).
T3 construct: also called muFolR1-Fc; murine FolR1
Put plainly: SPR Biacore, avidity set-up, antigen-Fc on SA chip. The method, then: as §1, §2
A general note: SPR reads the build-up and loss of mass on a sensor chip optically.

In test [6] the target is T1, recombinant biotinylated monomeric Fc …. Put plainly: SPR Biacore, avidity (bivalent, apparent KD), antigen-Fc on SA chip. The method, then:
(§5) Binding of FolR1 binders as IgG or in the T-cell bispecific format to different recombinant folate receptors (human FolR1, 2 and 3, murine FolR1 and cynomolgus FolR1; all as Fc fusions) was assessed by surface plasmon resonance (SPR). All SPR experiments were performed on a Biacore T200 at 25° C. with HBS-EP as running buffer (0.01 M HEPES pH 7.4, 0.15 M NaCl, 3 mM EDTA, 0.005% Surfactant P20, Biacore, Freiburg/Germany).
(§6) Recombinant biotinylated monomeric Fc fusions of human, cynomolgus and murine Folate Receptor 1 (FolR1-Fc) were directly coupled on a SA chip using the standard coupling instruction (Biacore, Freiburg/Germany). The immobilization level was about 300-400 RU. The anti-FolR1 IgGs or T cell bispecifics were passed at a concentration range from 2.1 to 500 nM with a flow of 30 μL/minutes through the flow cells over 180 seconds. The dissociation was monitored for 600 seconds. Bulk refractive index differences were corrected for by subtracting the response obtained on reference flow cell immobilized with recombinant biotinylated IL2 receptor Fc fusion. […] The binding curves resulting from the bivalent binding of the IgGs or T cell bispecifics were approximated to a 1:1 Langmuir binding and fitted with that model (which is not correct, but gives an idea of the avidity). The apparent avidity constants for the interactions were derived from the rate constants of the fitting using the Bia Evaluation software (GE Healthcare).
This is another data set of the same source.

Test [7] concerns the target T2, recombinant biotinylated monomeric Fc …. Described as above. How it is done: as §5, §6
This is another data set of the same source.

Test [8] has as its target T1, recombinant biotinylated monomeric Fc …. Put plainly: SPR Biacore, affinity (monovalent), antibody captured via anti-Fab. How it is done: as §5
(§7) For affinity measurement, direct coupling of around 6000-7000 resonance units (RU) of the anti-human Fab specific antibody (Fab capture kit, GE Healthcare) was performed on a CM5 chip at pH 5.0 using the standard amine coupling kit (GE Healthcare). Anti-FolR1 IgGs or T cell bispecifics were captured at 20 nM with a flow rate of 10 μl/min for 20 or 40 sec, the reference flow cell was left without capture. Dilution series (6.17 to 500 nM or 12.35 to 3000 nM) of human or cyno Folate Receptor 1 Fc fusion were passed on all flow cells at 30 μl/min for 120 or 240 sec to record the association phase. The dissociation phase was monitored for 240 s and triggered by switching from the sample solution to HBS-EP. The chip surface was regenerated after every cycle using a double injection of 60 sec 10 mM Glycine-HCl pH 2.1 or pH 1.5. Bulk refractive index differences were corrected for by subtracting the response obtained on the reference flow cell 1. The affinity constants for the interactions were derived from the rate constants by fitting to a 1:1 Langmuir binding using the Bia Evaluation software (GE Healthcare).
The source holds these as a separate data set.

Test [9] addresses T2, recombinant biotinylated monomeric Fc …. Described as above. How it is done: as §5, §7
This is another data set of the same source.

Test [10] has as its target T4, recombinant biotinylated monomeric Fc fusion of human Folate Receptor 2 (hu FolR2 ECD-AcTev-Fcknob-Avi tag … (human, UniProt P0DOX5 223-449 = IgG part, biotin on the C-terminal Avi tag)).
T4 construct: also called FolR2-Fc
Kind of test: SPR Biacore, single injection on immobilized antigen-Fc. In outline:
(§8)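 Biacore T200 at 25 °C in HBS-EP (HEPES pH 7.4). Biotinylated FolR-Fc fusions captured on SA chip at about 300-400 RU. IgGs injected once at 500 nM for 60 s to assess cross-reactivity and specificity.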

Test [11] addresses T5, recombinant biotinylated monomeric Fc fusion of human Folate Receptor 3 (hu FolR3 ECD-AcTev-Fcknob-Avi tag … (human, UniProt P0DOX5 223-449 = IgG part, biotin on the C-terminal Avi tag)).
T5 construct: also called FolR3-Fc
Described as above. The method, boiled down: as §8

Test [12] concerns the target T3, recombinant biotinylated monomeric Fc …. The description is as above. The method, boiled down:
as §8

The target in test [13] is T6, human FolR1 expressed on cells (HeLa, SKOV3, HT-29, transfected HEK cells) (human, UniProt P15328 25-234).
T6 construct: whole, on cells; also called FolR1 on HeLa cells; human FolR1 on cells
Put plainly: flow cytometry on HeLa cells.

The target of test [14] is T1, recombinant biotinylated monomeric Fc …. Kind of test: SPR Biacore, single injection on immobilized antigen-Fc. In outline:
as §8

The target in test [15] is T2, recombinant biotinylated monomeric Fc …. The description is as above. The method, boiled down: as §8
For test [16], the target named is T7, human FolR2 on transfected HEK cells (human, UniProt P14207 17-230).
T7 construct: whole, on cells
Put plainly: flow cytometry on transfected HEK cells.

Test [17] has as its target T6, human FolR1 expressed on cells (HeLa, …). Put plainly: flow cytometry on transfected HEK cells. In general terms: In flow cytometry, cells or beads pass a laser one at a time.

T6 sequence (P15328 25-234): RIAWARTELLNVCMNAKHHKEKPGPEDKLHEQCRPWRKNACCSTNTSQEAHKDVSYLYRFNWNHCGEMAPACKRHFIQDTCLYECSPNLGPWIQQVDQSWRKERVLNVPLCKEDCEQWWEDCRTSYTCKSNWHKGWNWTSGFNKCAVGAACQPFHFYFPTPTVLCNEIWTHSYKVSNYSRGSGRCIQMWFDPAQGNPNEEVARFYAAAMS
T7 sequence (P14207 17-230): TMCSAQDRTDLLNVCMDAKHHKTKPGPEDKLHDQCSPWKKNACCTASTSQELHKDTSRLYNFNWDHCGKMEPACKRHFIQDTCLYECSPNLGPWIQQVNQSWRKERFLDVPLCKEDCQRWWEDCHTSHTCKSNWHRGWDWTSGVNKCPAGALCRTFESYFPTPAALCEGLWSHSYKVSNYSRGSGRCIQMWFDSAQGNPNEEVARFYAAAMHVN

B1: 16D5 D52dE IgG (antibody, V domains shown)
VH: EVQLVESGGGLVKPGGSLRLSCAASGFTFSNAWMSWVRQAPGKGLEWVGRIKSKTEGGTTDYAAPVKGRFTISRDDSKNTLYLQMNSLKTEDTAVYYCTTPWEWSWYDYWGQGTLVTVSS
VL: QAVVTQEPSLTVSPGGTVTLTCGSSTGAVTTSNYANWVQEKPGQAFRGLIGGTNKRAPGTPARFSGSLLGGKAALTLSGAQPEDEAEYYCALWYSNLWVFGGGTKLTVL
notes: IgG
As usually defined, the koff is the first-order rate constant of dissociation. One may read the kon as the rate constant with which the complex forms. Consider B1, for which the Kd was determined as 2.5 nM in test [1], 3.4 nM in test [2], 530 nM in test [3] and 95 nM in test [4]. Also, the dissociation rate constant (koff) came to 0.00747 s⁻¹ in [1], 0.000545 s⁻¹ in test [2], 0.012 s⁻¹ in test [3] and 0.00227 s⁻¹ in test [4]. The kon was 2.98e+06 M⁻¹ s⁻¹ in [1], 162000 M⁻¹ s⁻¹ in test [2], 22500 M⁻¹ s⁻¹ in test [3] and 24000 M⁻¹ s⁻¹ in [4]. Also, the binding result in test [5] is on record as “no binding”.

B2: Mov19 IgG (antibody, V domains shown)
VH: QVQLQQSGAELVKPGASVKISCKASGYSFTGYFMNWVKQSHGKSLEWIGRIHPYDGDTFYNQNFKDKATLTVDKSSNTAHMELLSLTSEDFAVYYCTRYDGSRAMDYWGQGTTVTVSS
VL: DIELTQSPASLAVSLGQRAIISCKASQSVSFAGTSLMHWYHQKPGQQPKLLIYRASNLEAGVPTRFSGSGSKTDFTLNIHPVEEEDAATYYCQQSREYPYTFGGGTKLEIK
notes: control IgG; copies: 2 + 2
With B2, the Kd in [6] turned out to be 0.108 nM; in test [7], 0.14 nM; in test [8], 0.65 nM; in [9] it was 0.55 nM. Further, the dissociation rate constant (koff) was 0.000139 s⁻¹ in test [6], 0.000121 s⁻¹ in test [7], 0.000193 s⁻¹ in test [8] and 0.000159 s⁻¹ in test [9]. Further, the kon in test [6] is 1.29e+06 M⁻¹ s⁻¹; in [7] it was 861000 M⁻¹ s⁻¹; in test [8] it was 297000 M⁻¹ s⁻¹; in [9], 289000 M⁻¹ s⁻¹. Besides, the binding result in test [10] is listed as “no binding (tested: 500 nM)”; in [11] it was “no binding (tested: 500 nM)”; in [12] it was “no binding (tested: 500 nM)”; in [13], “binds”.

B3: 14E4 IgG (antibody, V domains shown)
VH: not shown
VL: EIVLTQSPGTLSLSPGERATLSCRASQSVSSSYLAWYQQKPGQAPRLLIYGASSRATGIPDRFSGSGSGTDSTLTISRLEPEDFAVYYCQQPTSSPITFGQGTKVEIK
notes: human IgG1
For B3, the binding result in test [10] is reported as “no binding (tested: 500 nM)”; in test [14] it was “no binding (tested: 500 nM)”; in test [11], “no binding (tested: 500 nM)”; in test [15], “no binding (tested: 500 nM)”; in [13] it was “no binding”.

B4: 9D11 IgG (antibody, V domains shown)
VH: QVQLVQSGAEVKKPGASVKVSCKASGYTFTSYYMHWVRQAPGQGLEWMGIINPSGGPTSYAQKFQGRVTMTRDTSTSTVYMELSSLRSEDTAVYYCARGDFAWLDYWGQGTLVTVSS
VL: not shown
notes: human IgG1
In the case of B4, the binding result is recorded as “no binding (tested: 500 nM)” in test [10]; “no binding (tested: 500 nM)” in [11]; “no binding (tested: 500 nM)” in test [12]; “no binding” in test [16]; “binds” in test [17].
